# Test results published in the RNAGym collection of RNA variant scans (doi:10.7554/elife.80360).
# B1: HDV Ribozyme (parent)
# chain: GGCCGGCAUGGUCCCAGCCUCCUCGCUGGCGCCGGCUGGGCAACAUUCCGAGGGGACCGUCCCCUCGGUAAUGGCGAAUGGGACCCA
# Variants of: B1
# Assay: self-cleavage, relative activity (ratio to wild type); higher = more cleavage; co-transcriptional
row,Variant,self-cleavage
1,GACCGGCAUGGUCCCAGCCUCCUCGCUGGCGCCGGGUGGGCAACAUUCCGAGGGGACCGUCCCCUCGGUAAUGGCGAAUGGGACCCA,0.0764
2,GACCGGCAUGGUCCCAGCCUCCUCGCUGGCGCCGGUUGGGCAACAUUCCGAGGGGACCGUCCCCUCGGUAAUGGCGAAUGGGACCCA,0.537
3,GACCGGCAUGGUCCCAGCUUCCUCGCUGGCGCCGGCUGGGCAACAUUCCGAGGGGACCGUCCCCUCGGUAAUGGCGAAUGGGACCCA,0
4,GACCGGCAUGGUCCCAGCCUCCUCGCUGGCGCCGGCUGGGCAACAUUCCGAGGGGCCCGUCCCCUCGGUAAUGGCGAAUGGGACCCA,0.148
5,GACCGGCAUGGUCCCAGCCUCCUCGCUGGCGCCGGCUGGGCAACAUUCCGAGGGGUCCGUCCCCUCGGUAAUGGCGAAUGGGACCCA,0.115
6,GACCGGCAUGGUCCCAGCCUCCUCGCUGGCGCCGGCUGGGCAACAUUCCGAGGGGACCGUCCACUCGGUAAUGGCGAAUGGGACCCA,0.198
7,GACCGGCAUGGUCCCAGCCUCCUCGCUGGCGCCGGCUGGGCAACAUUCCGAGGGGACCGUCCCCUCGGUAAUGGCGAAUGGUACCCA,0.0468
8,GACCGGCAUGGUCCCAGCCUCCUCGCUGGCGCCGGCUGGGCAACAUUCCGAGGGGACCGUCCCCUCGGUAAUGGCGAAUGGAACCCA,0.0852
9,GACCGGCAUGGUCCCAUCCUCCUCGCUGGCGCCGGCUGGGCAACAUUCCGAGGGGACCGUCCCCUCGGUAAUGGCGAAUGGGACCCA,0.0432
10,GACCGGAAUGGUCCCAGCCUCCUCGCUGGCGCCGGCUGGGCAACAUUCCGAGGGGACCGUCCCCUCGGUAAUGGCGAAUGGGACCCA,0
11,GACCGGCAUGGUCCCAGCCUCCUAGCUGGCGCCGGCUGGGCAACAUUCCGAGGGGACCGUCCCCUCGGUAAUGGCGAAUGGGACCCA,0.0815
12,GAGCGGCAUGGUCCCAGCCUCCUCGCUGGCGCCGGCUGGGCAACAUUCCGAGGGGACCGUCCCCUCGGUAAUGGCGAAUGGGACCCA,0.123
13,UGCCGGCAUGGUCCCAGCCUCCUCGCUGGCGCCGGCUGGGCAACAUUCCGAGGGGACCGUCCCCUCGGUAAUGGCGAAAGGGACCCA,0.178
14,UGCCGGCAUGGUCCCAGCCUCCUCGCUGGCGCCGGCUGGGCAACAUUCCGAGGGGACCGUCCCCUCGGUAAUGGCGAACGGGACCCA,0.332
15,GACCGGCAUGGUCCCAGCCUCCUCGCUGGCGCCGGCUGGGCAACAUUCCGGGGGGACCGUCCCCUCGGUAAUGGCGAAUGGGACCCA,0.141
16,GACCGGCAUGGUCCCAGCCUCCUCGCUGGCGCCGGCUGGGCAACAUUCCGAGGGGACCGUCCCCUCGGUAAUGGCGAAUCGGACCCA,0.0378
17,GACCGGCAUGGUCCCAGCCUCCUCGCUGGCGCCGGCUGGGCAACAUUCCGAGGGGACCGUCCCCUCGGUAAUGGCGAAUAGGACCCA,0.0735
18,GACCGGCAUGGUCCCAGCCUCCUCGCUGGCGCAGGCUGGGCAACAUUCCGAGGGGACCGUCCCCUCGGUAAUGGCGAAUGGGACCCA,0.0548
19,GACCGGCAUGGUCCCAGCCUCCUCGCUGGCGCCGGCUGGGCAACAUUCCGAGGGGACCGUCCCCUCGGUAAUGGCGAAUGGGACUCA,0.115
20,GACCGGCAUGGUCCCAGCCUCCUCGCUGGCGUCGGCUGGGCAACAUUCCGAGGGGACCGUCCCCUCGGUAAUGGCGAAUGGGACCCA,0.194
21,GACCGGCAUGGUCCCAGCCUCCUCGCUGGCGCCAGCUGGGCAACAUUCCGAGGGGACCGUCCCCUCGGUAAUGGCGAAUGGGACCCA,0.0536
22,GACCGGCAUGGUCCCAGCCUCCUCGCUGGCGCCGGCUGGGCAACAUUCCGAGGGGACCGUCCCCUCGGUAUUGGCGAAUGGGACCCA,0.106

row,Variant,self-cleavage
1,GACCGGCAUGGUCCCAGCCUCCUCGCUGGCGCCGGCUGGGCAACAUUCCGAGGGGACCGUCCCCUCCGUAAUGGCGAAUGGGACCCA,0.0536
2,GACCGGCAUGGUCCCAGCCUCCUCGCUGGCGCCGGCUGGGCAACAUUCCGAGGGGACCGUCCCCUCUGUAAUGGCGAAUGGGACCCA,0.157
3,GACCGGCAUGGUCCCAGCCUCCUCGCUGGCGCCGGCUGGGCAACAUUCCGAGGGGACCGUCCCCUCGGUAAUAGCGAAUGGGACCCA,0.0742
4,GACCGGCAUGGUCCGAGCCUCCUCGCUGGCGCCGGCUGGGCAACAUUCCGAGGGGACCGUCCCCUCGGUAAUGGCGAAUGGGACCCA,0.0277
5,GACCGGCAUGGUACCAGCCUCCUCGCUGGCGCCGGCUGGGCAACAUUCCGAGGGGACCGUCCCCUCGGUAAUGGCGAAUGGGACCCA,0.0231
6,GACCGGCAUGGUGCCAGCCUCCUCGCUGGCGCCGGCUGGGCAACAUUCCGAGGGGACCGUCCCCUCGGUAAUGGCGAAUGGGACCCA,0.0282
7,GACAGGCAUGGUCCCAGCCUCCUCGCUGGCGCCGGCUGGGCAACAUUCCGAGGGGACCGUCCCCUCGGUAAUGGCGAAUGGGACCCA,0.0615
8,GACGGGCAUGGUCCCAGCCUCCUCGCUGGCGCCGGCUGGGCAACAUUCCGAGGGGACCGUCCCCUCGGUAAUGGCGAAUGGGACCCA,0.0563
9,GACCGGCAUGGUCCCAGCCUCCUCGCUGGCGCCGGCUGGGCAGCAUUCCGAGGGGACCGUCCCCUCGGUAAUGGCGAAUGGGACCCA,0.0234
10,GACCGGCAUGGUCCCAGCCCCCUCGCUGGCGCCGGCUGGGCAACAUUCCGAGGGGACCGUCCCCUCGGUAAUGGCGAAUGGGACCCA,0.0536
11,GACCAGCAUGGUCCCAGCCUCCUCGCUGGCGCCGGCUGGGCAACAUUCCGAGGGGACCGUCCCCUCGGUAAUGGCGAAUGGGACCCA,0.0343
12,GACCGGCAUGGUCCCAGCCUCCUCGCUGGCGCCGGCUGGGCAACAUUCCGAGGGGACCGUCCCCUCGGUAAGGGCGAAUGGGACCCA,0.0906
13,GACCGGCAUGGUCCCAGCCUCCUCGCUGGCGCCGGCUGGGCAACAUUCCGAGGGGACCGUCCCCUCGGUAACGGCGAAUGGGACCCA,0.0455
14,GACCGGCAUGGUCCCAGCCUCCACGCUGGCGCCGGCUGGGCAACAUUCCGAGGGGACCGUCCCCUCGGUAAUGGCGAAUGGGACCCA,0.219
15,GACCGGCAUGGUCCCAGCCUCCGCGCUGGCGCCGGCUGGGCAACAUUCCGAGGGGACCGUCCCCUCGGUAAUGGCGAAUGGGACCCA,0.0886
16,GACCGGCAUGGUCCCAGCCUCCCCGCUGGCGCCGGCUGGGCAACAUUCCGAGGGGACCGUCCCCUCGGUAAUGGCGAAUGGGACCCA,0.0511
17,GACCGGCAUGGUCCCAGCCUCCUCGCUUGCGCCGGCUGGGCAACAUUCCGAGGGGACCGUCCCCUCGGUAAUGGCGAAUGGGACCCA,0.0364
18,GACCGGCAUGGUCCCAGCCUCCUCGCUCGCGCCGGCUGGGCAACAUUCCGAGGGGACCGUCCCCUCGGUAAUGGCGAAUGGGACCCA,0.0415
19,GACCGGCAUGGUCCCAGCCUCCUCGCUGGCGCCGGCUGGGCAACAUUCCGAGGGGACCGUCCCCUCGGUGAUGGCGAAUGGGACCCA,0.0511
20,GACCGGCAUGGUCCCAGCCUCCUCGCUGGCGCCGGCUGGGCAACAUUCCGAGGGGACCGUCCCCUCGGUCAUGGCGAAUGGGACCCA,0.157
21,GACCGGCAUGGUCACAGCCUCCUCGCUGGCGCCGGCUGGGCAACAUUCCGAGGGGACCGUCCCCUCGGUAAUGGCGAAUGGGACCCA,0.0804
22,GACCGGCAUGGUCCCAGCCUCCUCGCUGGCGCCGGCUGGGCAACAUUCCGAGGGGACCGUCCCCUCGGUAAUGGCUAAUGGGACCCA,0.332

row,Variant,self-cleavage
1,GACCGGCAUGGUCCCAGCCUCCUCGCUGGCGCCGGCUGGGCAACAUUGCGAGGGGACCGUCCCCUCGGUAAUGGCGAAUGGGACCCA,0.157
2,GACCGGCAUGGUCCCAGCCUCCUCGCUGGCGCCGGCUGGGCAACAUUUCGAGGGGACCGUCCCCUCGGUAAUGGCGAAUGGGACCCA,0.216
3,GACCGGCAUGGUCCCAGCCUCCUCGCUGGCGCCGGCUGGGCAACAUUACGAGGGGACCGUCCCCUCGGUAAUGGCGAAUGGGACCCA,0.17
4,GACCGGCAUGGUCCCAGCCUCCUCGCUGGCGCCGGCGGGGCAACAUUCCGAGGGGACCGUCCCCUCGGUAAUGGCGAAUGGGACCCA,0
5,GACCGGCAUGGUCCCAGCCUCCUCGCUGGCGCCGGCCGGGCAACAUUCCGAGGGGACCGUCCCCUCGGUAAUGGCGAAUGGGACCCA,0.232
6,GACCGGCAUGGUCCCAGCCUCCUCGCUGGCGCCGCCUGGGCAACAUUCCGAGGGGACCGUCCCCUCGGUAAUGGCGAAUGGGACCCA,0.0326
7,GACCGGCAUGGUCCCAGCCUCCUCGCUGGCGCCGGCUGGGCAACAUUCCGAGGGGACCGGCCCCUCGGUAAUGGCGAAUGGGACCCA,0.314
8,GACCGGCAUGGUCCCAGCCUCCUCGCUGGCGCCGGCUGGGCAACAUUCCGAGGGGACCGACCCCUCGGUAAUGGCGAAUGGGACCCA,0.208
9,GACCGGCAUGGGCCCAGCCUCCUCGCUGGCGCCGGCUGGGCAACAUUCCGAGGGGACCGUCCCCUCGGUAAUGGCGAAUGGGACCCA,0.0405
10,GACCGGCAUGGACCCAGCCUCCUCGCUGGCGCCGGCUGGGCAACAUUCCGAGGGGACCGUCCCCUCGGUAAUGGCGAAUGGGACCCA,0
11,GACCGGCAUGGUCCCAGCCUCCUCGCUGGCGCCGGCUGGGCAACAUUCCGAGGGGACCGUCCCAUCGGUAAUGGCGAAUGGGACCCA,0.248
12,GACCGGCAUGGUCCCAGCCUCCUCGCUGGCGCCGGCUGGGCAACAUUCCGAGGGGACCGUCCCUUCGGUAAUGGCGAAUGGGACCCA,0.18
13,GACCGGCAUGGUCCCAGCCUCCUCGCUGGCGCCGGCUGGGCAACAUUCCGAGGGGACCGUCCCCUCGGUAAUGUCGAAUGGGACCCA,0.073
14,GACCGGCAUGGUCCCAGCCUCCUCGCUGGCGCCGGCUGGGCAACAUUCCGAGGGGACCGUCCCCUCGGUAAUGCCGAAUGGGACCCA,0.0811
15,GACCGGCAUGGUCCCAGCCUCCUCGCUGGCGCCGGCUGGGCAACAUUCCGAGGGGACCGUCCCCUCGGUAAUGGCGAAUGGGAGCCA,0.0391
16,GACCGGCAUGGUCCCAGCCUCCUCGCUGGCGCCGGCUGGGCAACAUUCCGAGGGGACCGUCCCCUCGGUAAUGGUGAAUGGGACCCA,0.0715
17,GACCGGCAUGGUCCCAGCCUCCUCGCUGGCGCCGGCUGGGCAACAUUCCGAGGGGACCGUCCCCUCGGUAAUGGCGAAUGGGACCAA,0.172
18,GACCGGCAUGGUCCCAGCCUCCUCGCUGGCGCCGGCUGGGCAACAUUCCGAGGGGACCGUCCCCUCGGUAAUGGCGAAUGGGACCUA,0.277
19,GACCGGCAUGGUCCCAGCCUCCUCGCUGACGCCGGCUGGGCAACAUUCCGAGGGGACCGUCCCCUCGGUAAUGGCGAAUGGGACCCA,0.0288
20,GACCGGCAUGGUCCCAGCCUCCUCGCCGGCGCCGGCUGGGCAACAUUCCGAGGGGACCGUCCCCUCGGUAAUGGCGAAUGGGACCCA,0.125
